Values joined by “and” are separate entries in the source; they are usually repeats but may differ in a detail not shown here. Identical values can stand only once.

The assay deals with pyruvate kinase M2 (mouse (endogenous in RAW264.7)) (UniProt P52480). Put plainly: cross-linking; RAW264.7 macrophages treated with 15KPF, lysed, lysate incubated with 2.5 mM disuccinimidyl suberate for 30 min; 10% SDS-PAGE and PKM2 immunoblot. (A western blot detects proteins with antibodies after separation by electrophoresis.)

pyruvate kinase M2, P52480 1-531 (enzyme; other documents disagree on this pair), sequence (P52480 whole entry): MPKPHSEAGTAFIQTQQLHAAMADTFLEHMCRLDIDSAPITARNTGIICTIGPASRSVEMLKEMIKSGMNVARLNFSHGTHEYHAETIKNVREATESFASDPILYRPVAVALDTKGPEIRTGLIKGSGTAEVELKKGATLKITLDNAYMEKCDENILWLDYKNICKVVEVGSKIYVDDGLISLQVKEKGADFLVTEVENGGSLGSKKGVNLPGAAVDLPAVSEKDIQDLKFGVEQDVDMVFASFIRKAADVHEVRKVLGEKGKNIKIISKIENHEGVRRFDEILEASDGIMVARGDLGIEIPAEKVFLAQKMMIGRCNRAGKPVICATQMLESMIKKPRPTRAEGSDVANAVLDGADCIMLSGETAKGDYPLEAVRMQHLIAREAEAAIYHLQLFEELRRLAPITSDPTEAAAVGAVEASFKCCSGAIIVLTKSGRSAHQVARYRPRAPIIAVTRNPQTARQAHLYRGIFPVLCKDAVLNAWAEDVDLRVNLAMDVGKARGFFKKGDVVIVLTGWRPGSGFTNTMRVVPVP

For the substance “pyruvate kinase M2, P52480 1-531 (enzyme; other documents disagree on this pair)”, the stoichiometry N is 4 and 2.

The stoichiometry N is a count of units in the complex or per binding partner.
